Test results from patent US20230391856A1 (ICAHN SCHOOL OF MEDICINE AT MOUNT SINAI, published 2023).
Substitutions are numbered along the chain they refer to.

B1: 8A1 (antibody, V domains shown)
VH: EVQLQESGGGLVQPGGSLKLSCAASGFTFSSYTMSWVRQTPEKRLEWVAYISNGGGSISYPDTVKGRFTISRDNAKNTLYLHMSSLKSEDTAMYHCAREGLRPGDRDRYYAMDYWGQGTSVTVSS
VL: DIVITQSPALMAAFPGDRVTITCSVSSSVSSSNLHWYRQKSETSPKPWIYGTSTLASGVPVRFSGSGSGTSYSLTISSMEAEDAATYYCQQWSSYPLTFGAGTKLELKR
B2: SARS2-1G9_f3 (antibody, V domains shown)
VH: QVQLVQSGAEVKKPGASVKVSCKASGYTFTSYDIIWVRQATGQGLEWMGWMSPNSGNTGYAQKFQGRVTMTRNTSISTAYMELSSLRSEDTAVYYCARFGYGSGALDYYYYGLDVWGQGTTVTVSS
VL: not shown
notes: also called antibody number 5
B3: SARS2-16C12_f3 (antibody, V domains shown)
VH: B2 VH
VL: not shown
notes: also called antibody number 16; family B
B4: SARS2-5H12_f3 (antibody, V domains shown)
VH: B2 VH with A16T, A24T, T30P, N54K, S55N, Y60F, K63R, D107G
VL: EIVLTQSPGTLSLSPGERATLSCRASQSVRSSHLAWYRQKPGQAPRLLIYGASSRATGIPDRFSGRGSGTDFTLTISRLEPEDFAVYYCQQYNFSPITFGQGTRLEIK
notes: also called antibody number 7
B5: 11G2_f3 (antibody, V domains shown)
VH: B2 VH with I35T, T69S
VL: B4 VL with S31N, R38Q, R66S, Y92F, N93G, F94S
notes: also called SARS2-11G2_S; antibody number 13
B6: SARS2-1D10_f3 (antibody, V domains shown)
VH: B2 VH with T41S, S77N
VL: not shown
notes: also called antibody number 3
B7: SARS2-1D5_f3 (antibody, V domains shown)
VH: B2 VH with I35T, S84N
VL: B4 VL with E17D, R38Q, R66S, T73S, Y92F, N93G, F94S
notes: also called antibody number 2
B8: SARS2-18E7_f3 (antibody, V domains shown)
VH: B2 VH with K19T, K63R
VL: not shown
notes: also called antibody number 19
B9: SARS2-17A8_f3 (antibody, V domains shown)
VH: B2 VH with R72K
VL: not shown
notes: also called antibody number 17
B10: SARS2-7C10_f3 (antibody, V domains shown)
VH: B2 VH with I35T, S84R
VL: B4 VL with Y37S, R38Q, R66S, Y92F, N93G, F94S
notes: also called antibody number 8
B11: SARS2-16C5_f3 (antibody, V domains shown)
VH: B2 VH with S77G, Y95F
VL: B4 VL with R38Q, R66S, F94N
notes: also called antibody number 15; family B
B12: SARS2-9C6_f3 (antibody, V domains shown)
VH: B2 VH with I35T, N54K
VL: B4 VL with F94S
notes: also called antibody number 10
B13: SARS2-5D7_f3 (antibody, V domains shown)
VH: B2 VH with A16T, A24T, N54K, S55N, K63R
VL: B4 VL with F94I
notes: also called antibody number 6
B14: SARS2-1E2_f3 (antibody, V domains shown)
VH: B2 VH with I35T
VL: B4 VL with L34F, R38Q, R66S, Y87C, N93G, F94S
notes: also called antibody number 4
B15: SARS2-8H4_f3 (antibody, V domains shown)
VH: B2 VH with I35T
VL: B4 VL with R38Q, R66S, Y92F, N93G, F94S
notes: also called antibody number 9
B16: SARS2-1C12_f3 (antibody, V domains shown)
VH: B2 VH with I35T, A61T
VL: B4 VL with R38Q, R66S, F94N
notes: also called antibody number 1
B17: SARS2-17F2_f3 (antibody, V domains shown)
VH: B2 VH with K13R, I35T, N54D, K63R
VL: B4 VL with R38Q, R66S, F94S
notes: also called antibody number 18
B18: SARS2-10D6_f3 (antibody, V domains shown)
VH: EVQLVETGGGLIQPGGSLRLSCAASGITVSSNYMNWVRQAPGKGLEWVSVIYSGGSTYYADSVKGRFTISRDNSKNTLYLQMNSLRAEDTAVYYCARDLELAGAFDIWGQGTMVTVSL
VL: DIQLTQSPSFLSASVGDRVTITCRASQGISSYLAWYQQKPGKAPKVLIYAASTLQSGVPSRFSGSGSGTEFTLTISSLQPEDFATYYCQQLNSYPPSTFGQGTKLEIK
notes: also called antibody number 11; family A
B19: SARS2-19C4_f3 (antibody, V domains shown)
VH: B18 VH with Y58F, L101V, A104G
VL: B18 VL with E70K, Y94F
notes: also called antibody number 20; family A
B20: SARS2-11D5_f3 (antibody, V domains shown)
VH: B18 VH with N35S, E100A, L101V
VL: B18 VL
notes: also called antibody number 12

biological target: SARS-CoV-2 spike protein (full length, wild type) (SARS-CoV-2, UniProt P0DTC2 14-1273); test: cell-based or functional assay

Binder | EC50 (pM)
B1 | 96 pM

biological target: T1, SARS-CoV-2 spike protein (full length, wild type) (SARS-CoV-2, UniProt P0DTC2 14-1273); test: cell-based or functional assay

Binder | EC50 (pM)
B2 | 145 pM
B3 | 59 pM
B4 | 377 pM
B5 | 74 pM
B6 | 47 pM
B7 | 49 pM
B8 | 62 pM
B9 | 59 pM
B10 | 152 pM
B11 | 107 pM
B12 | 105 pM
B13 | 284 pM
B14 | 218 pM
B15 | 100 pM
B16 | 75 pM
B17 | 151 pM
B18 | 1020 pM
B19 | 492 pM
B20 | 440 pM

biological target: T1, SARS-CoV-2 spike protein (full length, …); test: cell-based or functional assay; remark: another data set of the same source

Binder | Inhibition: EC50 [pM]
B5 | 109 pM
B7 | 94 pM

biological target: SARS-CoV-2 spike receptor binding domain (RBD) (SARS-CoV-2, UniProt P0DTC2 319-541); test: RBD/ACE2 competition; RBD binding to ACE2 on HEK-293 cells

Binder | ACE2 Inhibition (%)
B1 | 95%

biological target: T2, SARS-CoV-2 spike receptor binding domain (RBD) (SARS-CoV-2, UniProt P0DTC2 319-541); test: as above
T2 construct: also called SARS-CoV RBD

Binder | ACE2 Inhibition (%)
B2 | 96%
B3 | 87%
B4 | 100%
B5 | 90%
B6 | 95%
B7 | 94%
B8 | 82%
B9 | 98%
B10 | 85%
B11 | 94%
B12 | 85%
B13 | 97%
B14 | 86%
B15 | 93%
B16 | 88%
B17 | 65%
B18 | 81%
B19 | 89%
B20 | 66%

biological target: T2, SARS-CoV-2 spike receptor binding …; test: as above; remark: another data set of the same source

Binder | ACE2 binding [% inhibition]
B2 | 96%
B3 | 87%
B4 | 100%
B5 | 90%
B6 | 95%
B7 | 94%
B8 | 82%
B9 | 98%
B10 | 85%
B11 | 94%
B12 | 85%
B13 | 97%
B14 | 86%
B15 | 93%
B16 | 88%
B17 | 65%
B18 | 81%
B19 | 89%
B20 | 66%
